{
  "source": "the nanobody polyreactivity screen of Harvey et al. (2022)",
  "data": [
    {"assay": "yeast display, Sf9 membrane polyspecificity reagent, FACS + sequencing; frameworks hold sequencing errors", "in_short": "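After 36–48 hours of galactose induction, yeast (Saccharomyces cerevisiae BJ5465) displaying a synthetic nanobody library were stained at 4 °C for 1 hour with 10% biotinylated, detergent-solubilized Sf9 membrane reagent. Streptavidin microbeads enriched the stained cells before FACS sorting into low and high (top ~1%) gates on anti-HA and streptavidin fluorescence. Each clone's polyreactivity label reflects its gate of origin.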", "values": [
      {"sequence": "QVQLVESGGGLVQAGGSLRLSCAASGRIFNGNALGWYRQAPGNERELVAAISSGGRTYYADSVKGRFTISRDNAKNTVYLQMNSLKPEDTAVYYCNARGYSGRVIPEYYYWGQGTQVTVSS", "polyreactivity (PSR sort gate)": "high polyreactivity"},
      {"sequence": "QVQLVESGGGLVQAGGSLRLSCAASGRIFNGNAMGWYRQAPGKESELVAAISTSGGRTYYADSVKGRFTISRDNAKNTVYLQMNSLKPEDTAVYYCAARYFRRDYIDYDLWGQGTQVTVSS", "polyreactivity (PSR sort gate)": "low polyreactivity"},
      {"sequence": "QVQLVESGGGLVQAGGSLRLSCAASGRIFNGYAMGWYRQAPGKERELVAAISKSGTRTYYADSVKGRFTISRDNAKNTVYLQMTSLKPEDTAVYYCNARVYRYDTYNEYYYWGQGTQVTVSS", "polyreactivity (PSR sort gate)": "high polyreactivity"},
      {"sequence": "QVQLVESGGGLVQAGGSLRLSCAASGRIFNIYAMGWYRQAPGKERELVAAIRWNGGSTYYADSVKGRFTISRDNAKYTVYLQMYSLKPEDSAVYYCAAARRRRFYDYYNAWYDVDYWGQGTQVSVSS", "polyreactivity (PSR sort gate)": "low polyreactivity"},
      {"sequence": "QVQLVESGGGLVQAGGSLRLSCAASGRIFNKNAMGWYRQAPGKERELVAAISWSGTSTYYADSVKGRFTISRDTAKNTVYLQMHSLKPEDTAVYYCAAADFYYTGADDYWGQGTQVTVSS", "polyreactivity (PSR sort gate)": "high polyreactivity"},
      {"sequence": "QVQLVESGGGLVQAGGSLRLSCAASGRIFNKNAMGWYRQAPGKERELVAAITYSGGSTYYADSVKGRFTISRDNAKNTVYLQMNSLKPEDTAVYYSARDLYYVYSFAPYRYEYWGQGTQVTVSS", "polyreactivity (PSR sort gate)": "low polyreactivity"},
      {"sequence": "QVQLVESGGGLVQAGGSLRLSCAASGRIFNPNAMGWYRQAPGKERELVAAITSGDSTNYADSVKGRFTISRDNAKNTVYLQMNSLKPEDTAVYYCAAGPSKRPPWLRQGGYDYWGQGTQVTVSS", "polyreactivity (PSR sort gate)": "low polyreactivity"},
      {"sequence": "QVQLVESGGGLVQAGGSLRLSCAASGRIFNPYAMGWYRQAPWKERELVAAIRRSGVDTYYADSVKGRFTNSRDNAKNTVYFQMNSLKPEDTAVYYCNAVYKRIGYSEFDYWGQGTQVTVSS", "polyreactivity (PSR sort gate)": "low polyreactivity"},
      {"sequence": "QVQLVESGGGLVQAGGSLRLSCAASGRIFNQYGMGWYRQAPGKERELVAAIRSGDSTNYADSVKGRFTISRDNAKNTVYLQMNSLKPEDTAVYYCKAVPSQHDEFDYWGQGTQVTVSS", "polyreactivity (PSR sort gate)": "low polyreactivity"},
      {"sequence": "QVQLVESGGGLVQAGGSLRLSCAASGRIFNRYAMGWYRQAPGKERELVASISLSGDSTYYADSVKGRFTISRDNAKNTVYLQMNSLKPEDTAVYYCAVEGLGAAVYAGDRYDYWGQGTQVTVSS", "polyreactivity (PSR sort gate)": "low polyreactivity"},
      {"sequence": "QVQLVESGGGLVQAGGSLRLSCAASGRIFNSYGMGWYRHAPGKEREFVAAISRSGGITYYADSVKGRFTISRDNAKNTVYLQMNSLKPEDSAVYYCAADYYWRRQRQVGYWGQGTQVTVSS", "polyreactivity (PSR sort gate)": "high polyreactivity"},
      {"sequence": "QVQLVESGGGLVQAGGSLRLSCAASGRIFNVYAMGWYRQAPGKERELVASITSAGSTYYADSVKGRFTISRDNAKNTVYLQMNSLKPEDTAVYYCAADSYSVYYYTYDSWGQGTQVTVSS", "polyreactivity (PSR sort gate)": "low polyreactivity"},
      {"sequence": "QVQLVESGGGLVQAGGSLRLSCAASGRIFNWYAMGWYRKAPGKERELVAAISTDGSTYYADSVKGRFTISRDNAKNTVFLQMNSLKPEDTAVYYCAAVPGYTHLWGGPFDYWGQGTQVTVSS", "polyreactivity (PSR sort gate)": "low polyreactivity"},
      {"sequence": "QVQLVESGGGLVQAGGSLRLSCAASGRIFNYYAMGWYRQAPGKERELVAAISARGGSTYYADSVKGRFTISRDNAKNTVYLQMNSLKPEDNAVYYCAKRLYYSYGKYLLGAYYYWGQGTQVTVSS", "polyreactivity (PSR sort gate)": "high polyreactivity"},
      {"sequence": "QVQLVESGGGLVQAGGSLRLSCAASGRIFNYYAMGWYRQAPGKERELVAAISARGGSTYYADSVKGRFTISRDNAKNTVYLQMNSLKPEDTAVYYCAVSSGSYGYGYWGQGTQVTVSS", "polyreactivity (PSR sort gate)": "high polyreactivity"},
      {"sequence": "QVQLVESGGGLVQAGGSLRLSCAASGRIFNYYAMGWYRQAPGKERELVATISRNGGRTYYADSVKGRFTISRDNAKNTVYLQMNSLKPEVTAVYYCATDGLYRYDYWGQGTQVTVSS", "polyreactivity (PSR sort gate)": "high polyreactivity"},
      {"sequence": "QVQLVESGGGLVQAGGSLRLSCAASGRIFNYYAMGWYRQAPGKVTEFVASITSRGGTTYYADSVKGRFTISRDNAKNTVYLQMNCLKTEDTAVYFCAAVTRQGSRRSRMNYWGQGTQVTVSS", "polyreactivity (PSR sort gate)": "high polyreactivity"},
      {"sequence": "QVQLVESGGGLVQAGGSLRLSCAASGRIFPANAMGWYRQAPGKERELVAAISSSGGSTYYADSVKGRFTISRDNAKNTVYLQMNSLKPEDTAVYYCAKVHYRWPRVTWPNVWWSFEYWGQGTQVTVSS", "polyreactivity (PSR sort gate)": "low polyreactivity"},
      {"sequence": "QVQLVESGGGLVQAGGSLRLSCAASGRIFPAYAMGWYRQAPGKERELVASIRRGGITYADSVKGRFTSSRDNAKNTVYLQMNSLKPEDTAVYYCNADKYGPSAYDYWGQGTQVTVSS", "polyreactivity (PSR sort gate)": "low polyreactivity"},
      {"sequence": "QVQLVESGGGLVQAGGSLRLSCAASGRIFPAYAMGWYRQPPGKERELVASIRRGGITYADSVKGRFTISRDNAKNTVYLQMNSLKPEDTAVYYCARPQWRDWYGYWGQGTQVTVSS", "polyreactivity (PSR sort gate)": "low polyreactivity"},
      {"sequence": "QVQLVESGGGLVQAGGSLRLSCAASGRIFPAYAMGWYRQSPGKERELVASIRRGGITYADSVKGRFTISRDNAKNTVSLQMTSLNPEDTAVYYCNAHYRGWGYHMDYWGQGTQVTGSS", "polyreactivity (PSR sort gate)": "low polyreactivity"},
      {"sequence": "QVQLVESGGGLVQAGGSLRLSCAASGRIFPAYVMGWYRQSPGKERELVATIDNGGGTYYADSVKGRFTISRDNAKNTVYLQMNSLKPEDTAVYYCARDRHVRWGLKMDYWGQGTQVTVSS", "polyreactivity (PSR sort gate)": "low polyreactivity"},
      {"sequence": "QVQLVESGGGLVQAGGSLRLSCAASGRIFPDNTMGWYRQAPGKERELVAVITYSGGSTYYADSVKGRFTISRDNAKNTVYLQMNSLKPEDTAVYYCARDDATAGDYWGQGTQVTVSS", "polyreactivity (PSR sort gate)": "low polyreactivity"},
      {"sequence": "QVQLVESGGGLVQAGGSLRLSCAASGRIFPEYAMGWYRQAPGKERELVAAISSGDNTTYADSVKGRFTISRDNAKNTVYLQMNSLIPEDTAVYYCNAGSCTTGQGGPIIEYGYWGQGTQVTVSS", "polyreactivity (PSR sort gate)": "low polyreactivity"},
      {"sequence": "QVQLVESGGGLVQAGGSLRLSCAASGRIFPFYAMGWYRQAPGKERELVAAITQSGGSTYYADSVKGRFTISRDNAKNTVYLQMNSLKPEDTAVYYCAADYGSFLYGYPTYDYWGQGTQVTVSS", "polyreactivity (PSR sort gate)": "low polyreactivity"},
      {"sequence": "QVQLVESGGGLVQAGGSLRLSCAASGRIFPFYDMGWYRQAPGKEREFVARITLSGGSTYYADSVMGRFTISRDNAKNTVNLQMNSLKPEDTSVYYCSADRTSWSVLDFDYWGQGTQVTVSS", "polyreactivity (PSR sort gate)": "low polyreactivity"},
      {"sequence": "QVQLVESGGGLVQAGGSLRLSCAASGRIFPGNAMGWYRQAPGKEREFVAAINTRGGITYYADSVKGRFTISRDNAKNTVYLQMNSLKPEDTAVYYCNKRWSIRSGYPYTYGIYDYWGQGTQVTVSS", "polyreactivity (PSR sort gate)": "low polyreactivity"},
      {"sequence": "QVQLVESGGGLVQAGGSLRLSCAASGRIFPGYAMGWYRQAPGKERELVAAISWIGGDTYYADSVKGRFTISRDNAKNTVYLQMNSLKPEDTAVYYCAARYGRHRVSWYATWRYGYWGQGTQVTVSS", "polyreactivity (PSR sort gate)": "low polyreactivity"},
      {"sequence": "QVQLVESGGGLVQAGGSLRLSCAASGRIFPKNAMGWYRQAPGTERELVAAISSGGRTKYADSVKGRFTISRDNAKNTVYLQMNSLKPEDTAVYYCAAYFVSKTGGYYYWGQGTQVSVSS", "polyreactivity (PSR sort gate)": "high polyreactivity"},
      {"sequence": "QVQLVESGGGLVQAGGSLRLSCAASGRIFPLYAMGWYRQAPGKERELVAAITSSGGSTYYPDSVKGRFTISRDNAKNTVYLQMNSLKPEDTAVYYCAADYSVYWLDYGYWGQGTQVTVSS", "polyreactivity (PSR sort gate)": "low polyreactivity"},
      {"sequence": "QVQLVESGGGLVQAGGSLRLSCAASGRIFPPNAMGWYRQGPGKERELVAGITSSGDTTYYADSVKGRFTISRDHAKKTVNLQMHSLKPEDTAVNYCAKDDVYADDRSALFDYWGQGTQVTVSS", "polyreactivity (PSR sort gate)": "low polyreactivity"},
      {"sequence": "QVQLVESGGGLVQAGGSLRLSCAASGRIFPRYAMAWYRQAPGKERELVARITRRGGITYYADSVKGRFTISRDNAKNTVYLQMNSLKPEDTAVYYCNVDYYRGGDFSYGYDYWGQGTQVTVSS", "polyreactivity (PSR sort gate)": "high polyreactivity"},
      {"sequence": "QVQLVESGGGLVQAGGSLRLSCAASGRIFPRYAMGWYRQAPGKERELFATISSGGSTYYADSVKGRFTISRDNAKNTVYLQMNSLKPEDTAVYYCAARKRPYTVINGMDYWGQGTQVTVSS", "polyreactivity (PSR sort gate)": "low polyreactivity"},
      {"sequence": "QVQLVESGGGLVQAGGSLRLSCAASGRIFPRYAMGWYRQAPGKERELVAGINSGGRTNYADSVKGRFTISRDNAKNTVYLQMNSLKPEDTAVYYCAKRTYPYGTYRSVWGYDYWGQGTQVTVSS", "polyreactivity (PSR sort gate)": "low polyreactivity"},
      {"sequence": "QVQLVESGGGLVQAGGSLRLSCAASGRIFPRYAMGWYRQAPGKERELVATISSGGSTYYADSVKGRFTISRDNAKNTVYLQMNSLKPEDTAVYYCAARKRPYTVINGMDYCGQGTQVTVSS", "polyreactivity (PSR sort gate)": "low polyreactivity"},
      {"sequence": "QVQLVESGGGLVQAGGSLRLSCAASGRIFPSYAMGRYRQAPGKERELVAAISRSGGRTYYADSVKGRFTISRDNAKNTVYFQMNSLKPEDTAVYYCARYGPYQSSYHYDYWGQGSQVTVSS", "polyreactivity (PSR sort gate)": "high polyreactivity"},
      {"sequence": "QVQLVESGGGLVQAGGSLRLSCAASGRIFPSYAMGWYIQAPGKERELVAAITSSDSTYYADSVKGRFTISRDNAKNTVYLQMNSLKPEDTAVYYCAAAYSYSGWWWFGYWGQGTQVTVSS", "polyreactivity (PSR sort gate)": "high polyreactivity"},
      {"sequence": "QVQLVESGGGLVQAGGSLRLSCAASGRIFPSYAMGWYRQAPGKERELVAAISSSGGRTYYADSVKGRFTISRDNAKNTVYLQRNSLKPEDSAVYYCAARWVQYGVRYDYWGHGTQVTVSS", "polyreactivity (PSR sort gate)": "high polyreactivity"},
      {"sequence": "QVQLVESGGGLVQAGGSLRLSCAASGRIFPSYAMVWYIQAPGKEREMVATISYRGTSTYYADSVKGRFTISRDNAKNTVYLQMNSLKPEDTGVYYCNKATRHHFYYWGQGTQVTVSS", "polyreactivity (PSR sort gate)": "high polyreactivity"},
      {"sequence": "QVQLVESGGGLVQAGGSLRLSCAASGRIFPTNAMGWYRQAPGKERELVASITRSGSTYYADSVTGRFTISRDNAKNTVYLQMNSLKPEDTAVYYCAAYAYIFLDWGGYPYYLYEYDYWGQGTQVTVSS", "polyreactivity (PSR sort gate)": "low polyreactivity"},
      {"sequence": "QVQLVESGGGLVQAGGSLRLSCAASGRIFPVNDMGWYRQAPGKERELVASITYSGGSTYYADSVKGRFTISRDNAKNTVYLQMNSLKPEDTAVYYCAADDGSQYYFDSPHEYDYWGQGTQVTVSS", "polyreactivity (PSR sort gate)": "low polyreactivity"},
      {"sequence": "QVQLVESGGGLVQAGGSLRLSCAASGRIFPVYAMGWYRQAPGKERELVAAITSGVSTNYADSVKGRFTISRDNAKYTVYLQMNSLKPEDTAVYYCNKDYTTYPYYEYGYWGQGTQVTVSS", "polyreactivity (PSR sort gate)": "low polyreactivity"},
      {"sequence": "QVQLVESGGGLVQAGGSLRLSCAASGRIFPYNAMGWYIQGPGKERELVAAISGGGSSTYYADSVKGRFTISRDNAKNTVYLQMNSLKPEVTAVYYCAAQAWWDGEYDYWGQGTKVTVSS", "polyreactivity (PSR sort gate)": "high polyreactivity"}
    ]}
  ]
}
